The results in this text go back to patent publication US11371056B2, “HPPD variants and methods of use” (BASF Agricultural Solutions Seed US LLC, priority 2017, dated 2022).

The test system of the series is Pseudomonas fluorescens HPPD polypeptide (wild-type and mutants). In words: Coupled HPPD activity assay: turnover and residual turnover in crude HPPD polypeptide extracts with and without Cmpd. 1. Format: biochemical. The settings on record: for Residual turnover [%]: 100 μM Cmpd. 1, normalised to turnover without inhibitor; for Turnover: absence of Cmpd. 1; for Turnover / Residual turnover: changes in absorbance (OD) at 320 nm in the coupled assay, 30 min; for Residual turnover: presence of 100 μM Cmpd. 1. As for the experimental part:
For the generation of crude HPPD polypeptide extract in micro titer plates (MTP) for the determination of residual activity in inhibition assays, cells were grown in 40 or 150 μl LB medium containing 1% Glucose (Merck, Darmstadt, Germany) and 100 μg/ml ampicillin in a standard 96 well plate (Thermo Fisher Scientific, Waltham, USA) incubated for about 18 h in a humidity incubator at 37° C. 30 μl of this starter culture were added to 600 μl LB medium containing 100 μg/ml ampicillin and 150 mM Hepes (Merck, Darmstadt, Germany) as inoculum for the expression culture in 96 well plates (2 ml deep wells; HJ Bioanalytik, Erkelenz, Germany). The plates were sealed by an aluminium foil, and cells were incubated for 5 h at 37° C. on a plate shaker at 750 rpm. The expression was induced by addition of IPTG in a final concentration of 1 mM followed by further sealed incubation for about 18 h at 30° C. on a plate shaker at 750 rpm.
Cells were harvested by centrifugation at 4° C., 2500 g for 15 min discarding the supernatant. Cell pellets were stored at −80° C. and lysed in 250 μl 1× BugBuster® (Merck, Darmstadt, Germany) in 140 mM Tris (pH 7.8), with 1:25000 diluted BNase® (Qiagen, Hilden, Germany) by incubation of the resuspended cells for 30 min at 4° C. and 1000 rpm. Lysates were clarified by centrifugation for 15 min at 4° C., 2500 g, and 150 μl supernatant were transferred in standard 96 well plate (Thermo Fisher Scientific, Waltham, USA) for subsequent testing in quadruplets.
The activity of HPPD polypeptides was determined in absence or presence of HPPD inhibitors using the coupled HPPD activity assay (FIG. 1).
For the determination of the residual activity, the apparent kinetic constant (kapp) of the determined substrate conversion was measured as kinetic changes in absorbance (OD) at 320 nm in a coupled assay, in that homogentisate (HGA) formed by HPPD from HPP is directly converted into the well absorbing molecule maleylacetoacetate (MAA) by a second enzyme homogentisate dioxygenase (HGD), applied in excess uniformly in all assays (see FIG. 1). The measurements were performed in 384 micro titer plates (Greiner Bio-One GmbH, Frickenhausen, Germany) by plate readers (Tecan infinite M1000 or M1000PRO, Tecan, Männedorf, Switzerland). The kcat/kM ratio of an enzymatic activity is proportional to the apparent kinetic constant kapp and is proportional to kcat/kM*[E] ([E]=enzyme concentration). […] As both kapp measurements in the presence and absence of inhibitor were performed by use of the identical enzyme sample, crude or purified, and thereby at the same enzyme concentration, the enzyme concentration eliminates from the calculation of residual activity and the ratio of both kapp directly indicates the change of kM due to the inhibition.
The assay solution used for determination of residual activities in raw HPPD polypeptide samples was composed by 200 mM sodium phosphate (Merck, Darmstadt, Germany, pH 7.0), 5 mM MgCl2 (Merck, Darmstadt, Germany), 20 mM ascorbate (Sigma-Aldrich, St. Louis, USA), 1 mM DTT (Sigma-Aldrich, St. Louis, USA), 0.1% Pluronic F-68 (Sigma-Aldrich, St. Louis, USA), 40 μM FeSO4 (Sigma-Aldrich, St. […] Louis, USA) and equilibrated for 20 min on ice.

B1: SEQ ID NO:61 (protein)
chain: MADLYENPMGLMGFEFIEFASPTPGTLEPIFEIMGFTKVATHRSKNVHLYRQGEINLILNNEPNSIASYFAAEHGPSVCGMAFRVKDSQKAYNRALELGAQPIHIDTGPMELNLPAIKGIGGAPLYLIDRFGEGSSIYDIDFVYLEGVERNPVGAGLKVIDHLTHNVYRGRMVYWANFYEKLFNFREARYFDIKGEYTGLTSKAMSAPDGMIKIPLNEESSKGAGQIEEFLMQFNGEGIQHVAFLTDDLVKTWDALKKIGMRFLTAPGDEYYEMLEGRLPDHGEPVDQLQARGILLDGSSVEGDKRLLLQIFSEQLMGPVFFEFIQRKGDDGFGPDSFKVLFEQMERDQVRRGVLTAD
modifications: mutant HPPD polypeptide
On to B1, for which the “Residual turnover [%]” value came to 56%, the Turnover is on record as 0.206 and the Residual turnover turned out to be 0.116. Further, where the note is “100 μM Cmpd. 1, Table 3”, the “turnover and residual turnover, comparison in words” value was “decreases the turnover and residual turnover”.

B2: SEQ ID NO:5 (protein)
chain: MADLYENPMGLMGFEFIEFASPTPGTLEPIFEIMGFTKVATHRSKNVHLYRQGEINLILNNEPNSIASYFAAEHGPSVCGMAFRVKDSQKAYNRALELGAQPIHIDTGPMELNLPAIKGIGGAPLYLIDRFGEGSSIYDIDFVYLEGVERNPVGAGLKVIDHLTHNVYRGRMVYWANFYEKLFNFREARYFDIKGEYTGLTSKAMSAPDGMIRIPLNEESSKGAGQIEEFLMQFNGEGIQHVAFLTDDLVKTWDALKKIGMRFMTAPGDEYYEMLEGRLPDHGEPVDQLQARGILLDGSSVEGDKRLLLQIFSERLMGPVFFEFIQRKGDDGFGPDSFKVLFESIERDQVRRGVLTAD
modifications: mutant HPPD polypeptide
In the case of B2, the “Residual turnover [%]” value was found to be 44%, the Turnover is given as 0.162 and the Residual turnover came out at 0.071.

B3: SEQ ID NO:7 (protein)
chain: MADLYENPMGLMGFEFIEFASPTPGTLEPIFEIMGFTKVATHRSKNVHLYRQGEINLILNNEPNSIASYFAAEHGPSVCGMAFRVKDSQKAYNRALELGAQPIHIDTGPMELNLPAIKGIGGAPLYLIDRFGEGSSIYDIDFVYLEGVERNPVGAGLKVIDHLTHNVYRGRMVYWANFYEKLFNFREARYFDIKGEYTGLTSKAMSAPDGMIRIPLNEESSKGAGQIEEFLMQFNGEGIQHVAFLTDDLVKTWDALKKIGMRFLTAPGDEYYEMLEGRLPDHGEPVDQLQARGILLDGSSVEGDKRLLLQIFSEKLMGPVFFEFIQRKGDDGFGPDSFKVLFESIERDQVRRGVLTAD
modifications: mutant HPPD polypeptide
Regarding B3, the “Residual turnover [%]” value is 59%, the Turnover came out at 0.126 and the Residual turnover was determined as 0.074.

B4: SEQ ID NO:10 (protein)
chain: MADLYENPMGLMGFEFIEFASPTPGTLEPIFEIMGFTKVATHRSKNVHLYRQGEINLILNNEPNSIASYFAAEHGPSVCGMAFRVKDSQKAYNRALELGAQPIHIDTGPMELNLPAIKGIGGAPLYLIDRFGEGSSIYDIDFVYLEGVERNPVGAGLKVIDHLTHNVYRGRMVYWANFYEKLFNFREARYFDIKGEYTGLTSKAMSAPDGMIRIPLNEESSKGAGQIEEFLMQFNGEGIQHVAFLTDDLVKTWDALKKIGMRFMTAPGDEYYEMLEGRLPDHGEPVDQLQARGILLDGSSVEGDKRLLLQIFSEKLMGPVFFEFIQRKGDDGFGPDSFKVLFEQIERDQVRRGVLTAD
modifications: mutant HPPD polypeptide
For the molecule B4, the Turnover is recorded as 0.018 and the Residual turnover stood at 0.021.

B5: SEQ ID NO:9 (protein)
chain: MADLYENPMGLMGFEFIEFASPTPGTLEPIFEIMGFTKVATHRSKNVHLYRQGEINLILNNEPNSIASYFAAEHGPSVCGMAFRVKDSQKAYNRALELGAQPIHIDTGPMELNLPAIKGIGGAPLYLIDRFGEGSSIYDIDFVYLEGVERNPVGAGLKVIDHLTHNVYRGRMVYWANFYEKLFNFREARYFDIKGEYTGLTSKAMSAPDGMIRIPLNEESSKGAGQIEEFLMQFNGEGIQHVAFLTDDLVKTWDALKKIGMRFLTAPGDEYYEMLEGRLPDHGEPVDQLQARGILLDGSSVEGDKRLLLQIFSETLMGPVFFEFIQRKGDDGFGPDSFKVLFESIERDQVRRGVLTAD
modifications: mutant HPPD polypeptide
Regarding B5, the “Residual turnover [%]” value is given as 65%, the Turnover is 0.109 and the Residual turnover turned out to be 0.071.

B6: SEQ ID NO:4 (protein)
chain: MADLYENPMGLMGFEFIEFASPTPGTLEPIFEIMGFTKVATHRSKNVHLYRQGEINLILNNEPNSIASYFAAEHGPSVCGMAFRVKDSQKAYNRALELGAQPIHIDTGPMELNLPAIKGIGGAPLYLIDRFGEGSSIYDIDFVYLEGVERNPVGAGLKVIDHLTHNVYRGRMVYWANFYEKLFNFREARYFDIKGEYTGLTSKAMSAPDGMIRIPLNEESSKGAGQIEEFLMQFNGEGIQHVAFLTDDLVKTWDALKKIGMRFMTAPGDEYYEMLEGRLPDHGEPVDQLQARGILLDGSSVEGDKRLLLQIFSEQLMGPVFFEFIQRKGDDGFGPDSFKVLFESIERDQVRRGVLTAD
modifications: mutant HPPD polypeptide
Take B6: the “Residual turnover [%]” value is recorded as 50%, the Turnover worked out at 0.121 and the Residual turnover came out at 0.06.

B7: SEQ ID NO:8 (protein)
chain: MADLYENPMGLMGFEFIEFASPTPGTLEPIFEIMGFTKVATHRSKNVHLYRQGEINLILNNEPNSIASYFAAEHGPSVCGMAFRVKDSQKAYNRALELGAQPIHIDTGPMELNLPAIKGIGGAPLYLIDRFGEGSSIYDIDFVYLEGVERNPVGAGLKVIDHLTHNVYRGRMVYWANFYEKLFNFREARYFDIKGEYTGLTSKAMSAPDGMIRIPLNEESSKGAGQIEEFLMQFNGEGIQHVAFLTDDLVKTWDALKKIGMRFLTAPGDEYYEMLEGRLPDHGEPVDQLQARGILLDGSSVEGDKRLLLQIFSEQLMGPVFFEFIQRKGDDGFGPDSFKVLFESIERDQVRRGVLTAD
modifications: mutant HPPD polypeptide
In the case of B7, the “Residual turnover [%]” value is 66%, the Turnover is 0.124 and the Residual turnover amounted to 0.082.

B8: SEQ ID NO:3 (protein)
chain: MADLYENPMGLMGFEFIEFASPTPGTLEPIFEIMGFTKVATHRSKNVHLYRQGEINLILNNEPNSIASYFAAEHGPSVCGMAFRVKDSQKAYNRALELGAQPIHIDTGPMELNLPAIKGIGGAPLYLIDRFGEGSSIYDIDFVYLEGVERNPVGAGLKVIDHLTHNVYRGRMVYWANFYEKLFNFREARYFDIKGEYTGLTSKAMSAPDGMIRIPLNEESSKGAGQIEEFLMQFNGEGIQHVAFLTDDLVKTWDALKKIGMRFMTAPGDEYYEMLEGRLPDHGEPVDQLQARGILLDGSSVEGDKRLLLQIFSEKLMGPVFFEFIQRKGDDGFGPDSFKVLFESIERDQVRRGVLTAD
modifications: mutant HPPD polypeptide
With B8, the Turnover worked out at 0.013 and the Residual turnover is recorded as 0.012.

B9: SEQ ID NO:6 (protein)
chain: MADLYENPMGLMGFEFIEFASPTPGTLEPIFEIMGFTKVATHRSKNVHLYRQGEINLILNNEPNSIASYFAAEHGPSVCGMAFRVKDSQKAYNRALELGAQPIHIDTGPMELNLPAIKGIGGAPLYLIDRFGEGSSIYDIDFVYLEGVERNPVGAGLKVIDHLTHNVYRGRMVYWANFYEKLFNFREARYFDIKGEYTGLTSKAMSAPDGMIRIPLNEESSKGAGQIEEFLMQFNGEGIQHVAFLTDDLVKTWDALKKIGMRFMTAPGDEYYEMLEGRLPDHGEPVDQLQARGILLDGSSVEGDKRLLLQIFSETLMGPVFFEFIQRKGDDGFGPDSFKVLFESIERDQVRRGVLTAD
modifications: mutant HPPD polypeptide
Consider B9, for which the “Residual turnover [%]” value was 33%, the Turnover was determined as 0.159 and the Residual turnover is given as 0.052.
